Results from patent publication US10272135B2, “Apolipoprotein O and fragments thereof for inducing apoptosis in a cancerous cell” (INSERM (INSTITUT NATIONAL DE LA SANTÉ ET DE LA RECHERCHE …, priority 2014, dated 2019).

Tests used:
Assay type in all cases: cell-based
[1] = test system: long-chain acyl-CoA synthetase (ACSL); experiment: Acyl-CoA synthetase activity in cardiac myoblasts; settings: ApoO cells vs control (FIG. 6C)
Text: (§1) After ethical committee approval, all patients in this study gave written consent for sample collection and molecular analysis prior to inclusion. Patients were carefully selected by physicians from the Department of Cardiology, Toulouse University Hospital, prior to coronary by-pass surgery. Bioinformatics. Microarray expression data from human heart samples were downloaded from the GEO repository (GSE1145). This series consisted of 107 myocardial samples collected from patients undergoing cardiac transplantation whose failure arises from different etiologies (e.g. idiopathic dilated cardiomyopathy, ischemic cardiomyopathy, valvular cardiomyopathy, and hypertrophic cardiomyopathy) and from “normal” organ donors whose hearts cannot be used for transplants. Arrays were intensity normalized and hierarchical clustering (average group linkage, Pearson correlation, threshold r=0.8) was applied to identify groups of co-expressed genes. […] All ApoO sequences within the expression vectors were verified by DNA double strand sequencing using ABI PRISM®BigDye™ Terminator version 3.1 Ready reaction cycle sequencing kit (Life Technologies SAS, Villebon sur Yvette) and loaded on an ABI 3130XL DNA sequencing instrument (Life Technologies SAS, Villebon sur Yvette). […]

Caspase-3 = Caspase-3 enzymatic activity in H9c2 cardiac myoblasts
Text: After ethical committee approval, all patients in this study gave written consent for sample collection and molecular analysis prior to inclusion. Patients were carefully selected by physicians from the Department of Cardiology, Toulouse University Hospital, prior to coronary by-pass surgery. Bioinformatics. Microarray expression data from human heart samples were downloaded from the GEO repository (GSE1145). This series consisted of 107 myocardial samples collected from patients undergoing cardiac transplantation whose failure arises from different etiologies (e.g. idiopathic dilated cardiomyopathy, ischemic cardiomyopathy, valvular cardiomyopathy, and hypertrophic cardiomyopathy) and from “normal” organ donors whose hearts cannot be used for transplants. Arrays were intensity normalized and hierarchical clustering (average group linkage, Pearson correlation, threshold r=0.8) was applied to identify groups of co-expressed genes. ApoO expression levels were plotted for the 107 human hearts tested and used to define relevant molecular pathways using both Toppgene and Ingenuity Pathway Analysis (Ingenuity systems, Redwood City, Calif., USA). ApoO subcellular localization was predicted using Mitopred, mitoprot and YLoc. Animals: All animal Studies followed the INSERM Institute Animal Facility guidelines and were approved by the animal care committees of the INSERM I2MC UMR 1048. All animal procedures were performed according to the guidelines of the French Ministry of Agriculture. Animals were housed at the Toulouse I2MC animal facility in a room lit 12 h per day (6 AM-6 PM) at an ambient temperature of 22+/−1° C. […] All ApoO sequences within the expression vectors were verified by DNA double strand sequencing using ABI PRISM®BigDye™ Terminator version 3.1 Ready reaction cycle sequencing kit (Life Technologies SAS, Villebon sur Yvette) and loaded on an ABI 3130XL DNA sequencing instrument (Life Technologies SAS, Villebon sur Yvette). […]

MPTP = experiment: Mitochondrial calcein-cobalt assay of MPTP opening; settings: cultured cardiac myoblasts
[2] = test system: fatty acid transporter (CD36 and FATP4); experiment: Real-time PCR of fatty acid transporter expression in cardiac myoblasts; settings: ApoO cells vs control (FIG. 6A-B)
Text: as §1

B1: ApoO: 198-amino acid apolipoprotein, SEQ ID NO: 1; tested by overexpression from expression vectors or transgene (protein, listed as Homo sapiens)
chain: MFKVIQRSVGPASLSLLTFKVYAAPKKDSPPKNSVKVDELSLYSVPEGQSKYVEEARSQLEESISQLRHYCEPYTTWCQETYSQTKPKMQSLVQWGLDSYDYLQNAPPGFFPRLGVIGFAGLIGLLLARGSKIKKLVYPPGFMGLAASLYYPQQAIVFAQVSGERLYDWGLRGYIVIEDLWKENFQKPGNVKNSPGTK
[1]
  long-chain acyl-CoA synthetase (ACSL) activity: strongly increased
Caspase-3; ApoO cells vs control (FIG. 9g)
  activity of Caspase-3: increase
Caspase-3; ApoO overexpressing cells vs control (FIG. 9h)
  apoptotic effect of increasing doses of palmitate (Caspase-3 activity): dramatically amplified
MPTP
  kinetics of MPTP opening: alters the kinetics of MPTP opening
[2]
  fatty acid transporter (CD36 and FATP4) expression: strongly increased
